In PMC3017428 (Molecular cell, 2010):
Numbering of substitutions follows the chain as printed. Names and notes keep the numbering of the source.

B1: Spn1(148–293) (domain or fragment, S. cerevisiae, UniProt Q06505 148-293, looked up)
chain: DDLEQYLDEKILRLKDEMNIAAQLDIDTLNKRIETGDTSLIAMQKVKLLPKVVSVLSKANLADTILDNNLLQSVRIWLEPLPDGSLPSFEIQKSLFAALNDLPVKTEHLKESGLGRVVIFYTKSKRVEAQLARLAEKLIAEWTRPI

Key:
Test in all cases: ITC
Spn1(148–293)-R263D = target: T1, Spn1(148–293)-R263D (S. cerevisiae, UniProt Q06505 148-293, R263D)
T1 sequence (looked up): B1 chain with R116D

Spn1(148–293) = target: B1
Spt6(239–1117) = target: T2, Spt6(239–1117) (S. cerevisiae, UniProt P23615 239-1117)
T2 sequence (looked up): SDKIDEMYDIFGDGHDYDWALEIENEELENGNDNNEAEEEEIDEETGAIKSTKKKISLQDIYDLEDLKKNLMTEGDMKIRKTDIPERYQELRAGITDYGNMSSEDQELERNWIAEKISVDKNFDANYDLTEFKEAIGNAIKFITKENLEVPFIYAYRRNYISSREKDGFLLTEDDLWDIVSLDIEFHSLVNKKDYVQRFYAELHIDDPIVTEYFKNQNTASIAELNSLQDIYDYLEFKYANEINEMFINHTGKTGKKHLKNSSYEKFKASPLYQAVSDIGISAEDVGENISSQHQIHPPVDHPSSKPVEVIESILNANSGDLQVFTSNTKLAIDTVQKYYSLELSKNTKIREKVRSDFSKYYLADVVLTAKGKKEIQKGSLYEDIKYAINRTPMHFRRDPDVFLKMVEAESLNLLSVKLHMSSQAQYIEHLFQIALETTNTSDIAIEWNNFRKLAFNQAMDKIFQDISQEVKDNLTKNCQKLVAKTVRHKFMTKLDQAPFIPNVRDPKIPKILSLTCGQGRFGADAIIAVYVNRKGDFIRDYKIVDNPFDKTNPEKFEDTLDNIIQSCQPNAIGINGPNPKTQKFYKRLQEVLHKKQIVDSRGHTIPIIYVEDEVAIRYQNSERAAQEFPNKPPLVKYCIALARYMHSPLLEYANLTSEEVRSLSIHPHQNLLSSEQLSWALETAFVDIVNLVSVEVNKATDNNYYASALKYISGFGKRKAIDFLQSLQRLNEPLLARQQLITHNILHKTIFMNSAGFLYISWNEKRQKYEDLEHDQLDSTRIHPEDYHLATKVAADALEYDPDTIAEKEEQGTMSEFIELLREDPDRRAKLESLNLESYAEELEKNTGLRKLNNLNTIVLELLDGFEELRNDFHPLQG

SDKIDEMYDIFGDGHDYDWALEIENEELEN (domain or fragment, S. cerevisiae, UniProt P23615 239-268, looked up) [Spt6(239–268)] was tested, and the Kd (Spn1(148–293)-R263D) was 30 µM and the “stoichiometry N” value (Spn1(148–293)) was 1.

For SDKIDEMYDIKGDGHDYDWALEIENEELEN (domain or fragment, S. cerevisiae, UniProt P23615 239-268, looked up) [Spt6(239–268)-F249K], the Kd (Spn1(148–293)) was 11 µM.

B1 was tested, and the “stoichiometry N” value (Spt6(239–1117)) was 1.
